Laboratory results as given in paper PMC11303814 (Nature Communications, 2024).

Molecular target: the molecule itself
Experiment: cryo-EM structure

B1: full-length wild-type rat P2X7 receptor (receptor, UniProt Q64663 1-595, looked up)
chain: MPACCSWNDVFQYETNKVTRIQSVNYGTIKWILHMTVFSYVSFALMSDKLYQRKEPLISSVHTKVKGVAEVTENVTEGGVTKLVHGIFDTADYTLPLQGNSFFVMTNYLKSEGQEQKLCPEYPSRGKQCHSDQGCIKGWMDPQSKGIQTGRCIPYDQKRKTCEIFAWCPAEEGKEAPRPALLRSAENFTVLIKNNIDFPGHNYTTRNILPGMNISCTFHKTWNPQCPIFRLGDIFQEIGENFTEVAVQGGIMGIEIYWDCNLDSWSHRCQPKYSFRRLDDKYTNESLFPGYNFRYAKYYKENGMEKRTLIKAFGVRFDILVFGTGGKFDIIQLVVYIGSTLSYFGLATVCIDLIINTYASTCCRSRVYPSCKCCEPCAVNEYYYRKKCEPIVEPKPTLKYVSFVDEPHIWMVDQQLLGKSLQDVKGQEVPRPQTDFLELSRLSLSLHHSPPIPGQPEEMQLLQIEAVPRSRDSPDWCQCGNCLPSQLPENRRALEELCCRRKPGQCITTSELFSKIVLSREALQLLLLYQEPLLALEGEAINSKLRHCAYRSYATWRFVSQDMADFAILPSCCRWKIRKEFPKTQGQYSGFKYPY
modifications: limited glycosylation and acylation included in the models (sites not given)
- binding result: binds
